Patent publication US11471462B2, “Compositions and methods for detecting and treating diabetes” (THE BROAD INSTITUTE, INC., priority 2016, dated 2022)

Tested on: SLC16A11
Assay: SLC16A11 protein-protein interaction study (immunoprecipitation, quantitative mass spectrometry)
Set-up: species or system human
Conditions: Blandt-Altman; for BA log fold change: putative SLC16A11^REF interaction partners, immunoprecipitation from HEK293T cells vs empty vector control
Text: Alternatively, these variants may result in reduced transport because they disrupt protein-protein interactions responsible for correct SLC16A11 function. To explore this possibility, SLC16A11 was immunoprecipitated from HEK293T cells expressing either REF or T2D risk SLC16A11-V5 or empty vector control and quantitative mass spectrometry was used to define the SLC16A11 interactome.
Another mechanism through which the variants could affect activity is through disruption of protein-protein interactions. To explore this possibility, quantitative mass spectrometry-based protein-protein interaction studies were performed to define the SLC16A11 interactome and evaluate if the T2D risk coding variants alter any interactions.
Beads were then washed once with lysis buffer and three times with wash buffer. After the last wash, residual wash buffer was removed, 10 μL fresh wash buffer was added, and beads were stored at −80° C. until analysis by the Proteomics Platform at the Broad Institute, as detailed in the “Proteomics Methods for SLC16A11 Protein Interaction Studies” below.
The beads from immunopurification were washed once with IP lysis buffer, then three times with PBS, the three different lysates of each replicate were resuspended in 90 uL digestion buffer (2M Urea, 50 mM Tris HCl), 2 ug of sequencing grade trypsin added, 1 hour shaking at 700 rpm. The supernatant was removed and placed in a fresh tube. The beads were then washed twice with 50 uL digestion buffer and combined with the supernatant. The combined supernatants were reduced (2 uL 500 mM DTT, 30 minutes, RT), alkylated (4 uL 500 mM IAA, 45 minutes, dark) and a longer overnight digestion performed: 2 ug (4 uL) trypsin, shake o/n, The samples were then quenched with 20 uL 10% FA and desalted on 10 mg SepPak columns.
Desalted peptides were labelled with iTRAQ reagents according to the manufacturer's instructions (AB Sciex, Foster City, Calif.). Peptides were dissolved in 30 μl of 0.5 M TEAB pH 8.5 solution and labeling reagent was added in 70 ul of ethanol. After 1 h incubation the reaction was stopped with 50 mM Tris/HCl pH 7.5. Differentially labelled peptides were mixed and subsequently desalted on 10 mg SepPak columns.
Reconstituted peptides were separated on an online nanoflow EASY-nLC 1000 UHPLC system (Thermo Fisher Scientific) and analyzed on a benchtop Orbitrap Q Exactive Plus mass spectrometer (Thermo Fisher Scientific). The peptide samples were injected onto a capillary column (Picofrit with 10 μm tip opening/75 μm diameter, New Objective, PF360-75-10-N-5) packed in-house with 20 cm C18 silica material (1.9 μm ReproSil-Pur C18-AQ medium, Dr. Maisch GmbH, r119.aq). The UHPLC setup was connected with a custom-fit microadapting tee (360 μm, IDEX Health & Science, UH-753), and capillary columns were heated to 50° C. in column heater sleeves (Phoenix-ST) to reduce backpressure during UHPLC separation. Injected peptides were separated at a flow rate of 200 nL/min with a linear 80 min gradient from 100% solvent A (3% acetonitrile, 0.1% formic acid) to 30% solvent B (90% acetonitrile, 0.1% formic acid), followed by a linear 6 min gradient from 30% solvent B to 90% solvent B. Each sample was run for 120 min, including sample loading and column equilibration times. The Q Exactive instrument was operated in the data-dependent mode acquiring HCD MS/MS scans (R=17,500) after each MS1 scan (R=70,000) on the 12 top most abundant ions using an MS1 ion target of 3×10^6 ions and an MS2 target of 5×10^4 ions. The maximum ion time utilized for the MS/MS scans was 120 ms; the HCD-normalized collision energy was set to 27; the dynamic exclusion time was set to 20 s, and the peptide match and isotope exclusion functions were enabled.
All mass spectra were processed using the Spectrum Mill software package v6.0 pre-release (Agilent Technologies) which includes modules developed by us for iTRAQ-based quantification. […]

B1: SACM1L (protein)
chain: MATAAYEQLKLHITPEKFYVEACDDGADDVLTIDRVSTEVTLAVKKDVPPSAVTRPIFGILGTIHLVAGNYLIVITKKIKVGEFFSHVVWKATDFDVLSYKKTMLHLTDIQLQDNKTFLAMLNHVLNVDGFYFSTTYDLTHTLQRLSNTSPEFQEMSLLERADQRFVWNGHLLRELSAQPEVHRFALPVLHGFITMHSCSINGKYFDWILISRRSCFRAGVRYYVRGIDSEGHAANFVETEQIVHYNGSKASFVQTRGSIPVFWSQRPNLKYKPLPQISKVANHMDGFQRHFDSQVIIYGKQVIINLINQKGSEKPLEQTFATMVSSLGSGMMRYIAFDFHKECKNMRWDRLSILLDQVAEMQDELSYFLVDSAGQVVANQEGVFRSNCMDCLDRTNVIQSLLARRSLQAQLQRLGVLHVGQKLEEQDEFEKIYKNAWADNANACAKQYAGTGALKTDFTRTGKRTHLGLIMDGWNSMIRYYKNNFSDGFRQDSIDLFLGNYSVDELESHSPLSVPRDWKFLALPIIMVVAFSMCIICLLMAGDTWTETLAYVLFWGVASIGTFFIILYNGKDFVDAPRLVQKEKID
- BA log fold change: 1.26

B2: CANX (protein)
chain: HDGHDDDVIDIEDDLDDVIEEVEDSKPDTTAPPSSPKVTYKAPVPTGEVYFADSFDRGTLSGWILSKAKKDDTDDEIAKYDGKWEVEEMKESKLPGDKGLVLMSRAKHHAISAKLNKPFLFDTKPLIVQYEVNFQNGIECGGAYVKLLSKTPELNLDQFHDKTPYTIMFGPDKCGEDYKLHFIFRHKNPKTGIYEEKHAKRPDADLKTYFTDKKTHLYTLILNPDNSFEILVDQSVVNSGNLLNDMTPPVNPSREIEDPEDRKPEDWDERPKIPDPEAVKPDDWDEDAPAKIPDEEATKPEGWLDDEPEYVPDPDAEKPEDWDEDMDGEWEAPQIANPRCESAPGCGVWQRPVIDNPNYKGKWKPPMIDNPSYQGIWKPRKIPNPDFFEDLEPFRMTPFSAIGLELWSMTSDIFFDNFIICADRRIVDDWANDGWGLKKAADGAAEPGVVGQMIEAAEERPWLWVVYILTVALPVFLVILFCCSGKKQTSGMEYKKTDAPQPDVKEEEEEKEEEKDKGDEEEEGEEKLEEKQKSDAEEDGGTVSQEEEDRKPKAEEDEILNRSPRNRKPRRE
- BA log fold change: 1.38

B3: TMEM33 (protein)
chain: ADTTPNGPQGAGAVQFMMTNKLDTAMWLSRLFTVYCSALFVLPLLGLHEAASFYQRALLANALTSALRLHQRLPHFQLSRAFLAQALLEDSCHYLLYSLIFVNSYPVTMSIFPVLLFSLLHAATYTKKVLDARGSNSLPLLRSVLDKLSANQQNILKFIACNEIFLMPATVFMLFSGQGSLLQPFIYYRFLTLRYSSRRNPYCRTLFNELRIVVEHIIMKPACPLFVRRLCLQSIAFISRLAPTVP
- BA log fold change: 1.25

B4: HSDI7B12 (protein, UniProt Q53GQ0 1-312, looked up)
Very-long-chain 3-oxoacyl-CoA …: MESALPAAGFLYWVGAGTVAYLALRISYSLFTALRVWGVGNEAGVGPGLGEWAVVTGSTDGIGKSYAEELAKHGMKVVLISRSKDKLDQVSSEIKEKFKVETRTIAVDFASEDIYDKIKTGLAGLEIGILVNNVGMSYEYPEYFLDVPDLDNVIKKMININILSVCKMTQLVLPGMVERSKGAILNISSGSGMLPVPLLTIYSATKTFVDFFSQCLHEEYRSKGVFVQSVLPYFVATKLAKIRKPTLDKPSPETFVKSAIKTVGLQSRTNGYLIHALMGSIISNLPSWIYLKIVMNMNKSTRAHYLKKTKKN
- B.A. logFC (enrichment of protein immunoprecipitated from HEK293T cells expressing P2D SLC16A11^REF-V5 vs empty vector control, quantitative mass spectrometry): 1.26

B5: HSD17B12 (protein)
chain: B4 Very-long-chain 3-oxoacyl-CoA …
- BA log fold change: 1.26

B6: SLC16A11 (protein, UniProt Q8NCK7 1-471, looked up)
Monocarboxylate transporter 11: MPAPQRKHRRGGFSHRCFPTPQTAMTPQPAGPPDGGWGWVVAAAAFAINGLSYGLLRSLGLAFPDLAEHFDRSAQDTAWISALALAVQQAASPVGSALSTRWGARPVVMVGGVLASLGFVFSAFASDLLHLYLGLGLLAGFGWALVFAPALGTLSRYFSRRRVLAVGLALTGNGASSLLLAPALQLLLDTFGWRGALLLLGAITLHLTPCGALLLPLVLPGDPPAPPRSPLAALGLSLFTRRAFSIFALGTALVGGGYFVPYVHLAPHALDRGLGGYGAALVVAVAAMGDAGARLVCGWLADQGWVPLPRLLAVFGALTGLGLWVVGLVPVVGGEESWGGPLLAAAVAYGLSAGSYAPLVFGVLPGLVGVGGVVQATGLVMMLMSLGGLLGPPLSGFLRDETGDFTASFLLSGSLILSGSFIYIGLPRALPSCGPASPPATPPPETGELLPAPQAVLLSPGGPGSTLDTTC
- BA log fold change: 1.34

B7: SEC61A2 (protein)
chain: MGIKFLEVIKPFCAVLPEIQKPERKIQFREKVLWTAITLFIFLVCCQIPLFGIMSSDSADPFYWMRVILASNRGTLMELGISPIVTSGLIMQLLAGAKIIEVGDTPKDRALFNGAQKLFGMIITIGQAIVYVMTGMYGDPAEMGAGICLLIIIQLFVAGLIVLLLDELLQKGYGLGSGISLFIATNICETIVWKAFSPTTINTGRGTEFEGAVIALFHLLATRTDKVRALREAFYRQNLPNLMNLIATVFVFAVVIYFQGFRVDLPIKSARYRGQYSSYPIKLFYTSNIPIILQSALVSNLYVISQMLSVRFSGNFLVNLLGQWADVSGGGPARSYPVGGLCYYLSPPESMGAIFEDPVHVVVYIIFMLGSCAFFSKTWIEVSGSSAKDVAKQLKEQQMVMRGHRDTSMVHELNRYIPTAAAFGGLCIGALSVLADFLGAIGSGTGILLAVTIIYQYFEIFVKEQAEVGGMGALFF
- BA log fold change: 1.59

B8: DDOST (protein)
chain: SGPRTLVLLDNLNVRETHSLFFRSLKDRGFELTFKTADDPSLSLIKYGEFLYDNLIIFSPSVEDFGGNINVETISAFIDGGGSVLVAASSDIGDPLRELGSECGIEFDEEKTAVIDHHNYDISDLGQHTLIVADTENLLKAPTIVGKSSLNPILFRGVGMVADPDNPLVLDILTGSSTSYSFFPDKPITQYPHAVGKNTLLIAGLQARNNARVIFSGSLDFFSDSFFNSAVQKAAPGSQRYSQTGNYELAVALSRWVFKEEGVLRVGPVSHHRVGETAPPNAYTVTDLVEYSIVIQQLSNGKWVPFDGDDIQLEFVRIDPFVRTFLKKKGGKYSVQFKLPDVYGVFQFKVDYNRLGYTHLYSSTQVSVRPLQHTQYERFIPSAYPYYASAFSMMLGLFIFSIVFLHMKEKEKSD
- BA log fold change: 1.65

B9: BAG2 (protein)
chain: AQAKINAKANEGRFCRSSSMADRSSRLLESLDQLELRVEALREAATAVEQEKEILLEMIHSIQNSQDMRQISDGEREELNLTANRLMGRTLTVEVSVETIRNPQQQESLKHATRIIDEVVNKFLDDLGNAKSHLMSLYSACSSEVPHGPVDQKFQSIVIGCALEDQKKIKRRLETLLRNIENSDKAIKLLEHSKGAGSKTLQQNAESRFN
- BA log fold change: 1.26

B10: SURF4 (protein)
chain: GQNDLMGTAEDFADQFLRVTKQYLPHVARLCLISTFLEDGIRMWFQWSEQRDYIDTTWNCGYLLASSFVFLNLLGQLTGCVLVLSRNFVQYACFGLFGIIALQTIAYSILWDLKFLMRNLALGGGLLLLLAESRSEGKSMFAGVPTMRESSPKQYMQLGGRVLLVLMFMTLLHFDASFFSIVQNIVGTALMILVAIGFKTKLAALTLVVWLFAINVYFNAFWTIPVYKPMHDFLKYDFFQTMSVIGGLLLVVALGPGGVSMDEKKKEW
- BA log fold change: 1.33
